Data as given in patent US20020147306A1 (published 2002).
No end group written: not given here.

T1: ephrin B1 Val deletion (UniProt P98172 28-346, limits assumed)
T1 construct: whole, on cells; Tested from lysates of transfected Cos-1 cells; also called ephrin B1 Val deletion mutant; ephrin B1 lacking the C-terminal Val
T1 sequence (looked up): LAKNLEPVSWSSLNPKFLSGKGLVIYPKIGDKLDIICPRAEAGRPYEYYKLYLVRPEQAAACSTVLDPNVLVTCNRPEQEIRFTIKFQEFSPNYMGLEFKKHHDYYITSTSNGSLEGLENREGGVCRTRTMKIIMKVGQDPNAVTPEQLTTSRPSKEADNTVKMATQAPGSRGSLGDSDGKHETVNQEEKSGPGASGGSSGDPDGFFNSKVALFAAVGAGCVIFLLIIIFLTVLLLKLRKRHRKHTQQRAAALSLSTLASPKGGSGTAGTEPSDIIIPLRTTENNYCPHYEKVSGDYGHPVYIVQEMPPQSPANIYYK

B1: fluorescein-labelled NIYYKV peptide (peptide)
peptide: NIYYKV
modifications: also: 5-(and-6-)carboxyfluorescein label, site not given here
notes: 25 nM probe in fluorescence polarization; also called unphosphorylated peptide probe
B2: GST-syntenin fusion protein (full length: residues 1-299) (other, mouse, UniProt O08992 1-299, looked up)
chain: MSLYPSLEDLKVDKVIQAQTAYSANPASQAFVLVDASAALPPDGNLYPKLYPELSQYMGLSLNEAEICESMPMVSGAPAQGQLVARPSSVNYMVAPVTGNDAGIRRAEIKQGIREVILCKDQDGKIGLRLKSIDNGIFVQLVQANSPASLVGLRFGDQVLQINGENCAGWSSDKAHKVLKQAFGEKITMTIRDRPFERTVTMHKDSSGHVGFIFKSGKITSIVKDSSAARNGLLTDHHICEINGQNVIGLKDAQIADILSTAGTVVTITIMPTFIFEHIIKRMAPSIMKSLMDHTIPEV
notes: range 1-299; also called full-length syntenin; GST fusion of full-length syntenin; not shown: glutathione S-transferase (GST) from vector pGEX4T2
B3: syntenin-FLAG (other, mouse, UniProt O08992 1-299, looked up, not shown: small tags and cut ends)
chain: B2 chain
notes: range 1-299; Co-expressed with ephrin B1 in Cos-1 cells

Key:
[1] = molecular target: B2; assay: fluorescence polarization, 25 nM fluorescein-labelled peptide, GST fusion titrated, 22 C
Experimental: (§1) FIGS. 5A and 5B. Fluorescence polarization analysis of GST-FAP-1 PDZ3, GST-FAP-1 PDZ5 and GST-syntenin binding to Fluorescein-labelled peptides corresponding to the C-terminus of ephrin B1. FIG. 5 A, Solutions containing the indicated final concentration of GST-FAP-1 PDZ3 ( ) or GST-FAP-1 PDZ5 ( ) fusion protein in mixtures containing 25 nM fluorescein-labelled NIYYKV peptide probe, 20 mM phosphate pH 7.0, 100 mM NaCl, and 2 mM dithiothreitol (DTT) were monitored for fluorescence polarization at 22° C. The GST-FAP-1 PDZ5 fusion protein was also measured for binding to the phosphorylated peptides, NIpYYKV ( ), NiYpYKV ( ) and NIpYpYKV ( ). […] FIG. 5B, A Binding of a GST fusion of full-length syntenin to the NIYYKV ( ), NIpYYKV ( ), and NIpYpYKV ( ) peptides as measured by fluorescence polarization.
(§2) Binding constant determination and peptide competition studies were carried out using fluorescence polarization on a Beacon 2000 Fluorescence Polarization System (Pan Vera, Wis.) equipped with a 100-μl sample chamber. Fluorescein-labeled probes were prepared through reaction of B ephrin C-terminal peptides with 5-(and-6-)-carboxyfluorescein, succinimidyl ester (Molecular Probes, Oreg.) and purified by reverse-phase HPLC. The authenticity of the fluorescein-labelled peptides were confirmed by mass spectroscopy. In the binding studies, the fluorescein-labelled peptide probe was dissolved in 20 mM phosphate pH 7.0, 100 mM NaCl, and 2 mM DTT to a concentration of 25 nM and a known quantity of GST- fusion protein added. The reaction mixtures were allowed to stand for 10 min at room temperature prior to each measurement. All fluorescence polarization measurements were conducted at 22° C.
(§3) Fluorescence polarization experiments measuring GST-syntenin fusion protein binding to fluorescein-labeled NIYYKV (SEQ. ID. NO. 10) and NIpYYKV (SEQ. ID. NO. 8) peptides yielded nearly identical binding curves (FIG. 5B).

[2] = molecular target: T1, ephrin B1 Val deletion; assay: GST mix with lysates of transfected Cos-1 cells, anti-ephrin B1 immunoblot
Experimental: FIGS. 3A-C. FAP-1 PDZ5 and syntenin bind specifically to ephrin B1 in GST-mixes. Cos-1 cells were transiently transfected with either wild-type ephrin B1 (W. T.) or the ephrin B1 Val deletion (Val Δ) or were untransfected. Cell lysates were incubated with the GST fusion proteins as indicated and analyzed by immunoblotting with anti-ephrin B1 antibody. Immunoprecipitated ephrin B1 or ephrin B1 Val Δ were included as a positive control. FIG. 3A and FIG. 3B, GST-mixes with fusion proteins of FAP-1. C and D, GST-mixes with fusion proteins of syntenin.
(§4) Cos-1 cells were maintained in DMEM supplemented with 10% fetal bovine serum (FBS). Transient transfections were performed using Lipofectin reagent and Opti-MEM medium (Life Technologies Inc.) as outlined by the manufacturer. To reduce phosphorylation of ephrin B1 by binding to endogenously expressed EphB receptors or by stimulation with serum growth factors, transfected cells were transferred from 10 cm to 15 cm plates 24 h after transfection and serum starved in DMEM 0.5% FBS 12 h prior to cell lysis. Transfected cells were rinsed once in PBSA and lysed in PLC lysis buffer (5) with 10 μg/ml aprotonin, 10 μg/ml leupeptin, 1 mM sodium vanadate and 1 mM phenylmethylsulfonyl fluoride added. Immunoprecipitations were performed for 1 h at 4° C. using 1 μg anti-ephrin B1 antibody or 1 μg anti-IL-3 receptor a antibody with protein A-sepharose. […]

[3] = molecular target: fluorescein-labelled NIpYYKV peptide; assay: fluorescence polarization, 25 nM fluorescein-labelled peptide, GST fusion titrated, 22 C
Experimental: as §1, §2, §3

[4] = molecular target: fluorescein-labelled NIpYpYKV peptide; assay: as above
Experimental: as §1, §2, §3

[5] = molecular target: T1, ephrin B1 Val deletion; assay: co-immunoprecipitation from co-transfected Cos-1 cells, anti-FLAG blot
Experimental: (§5) FIG. 6. Co-immunoprecipitation of syntenin-FLAG with ephrin B1. Cos-1 cells were co-transfected with either ephrin B1 and syntenin-FLAG or with the ephrin B1 Val deletion and syntenin-FLAG as indicated. Cell lysates were immunoprecipitated with antibodies against ephrin B1 or IL-3 receptor a or were treated with protein A sepharose only. Immunocomplexes were subjected to SDS-PAGE (10%) and blotted with anti-FLAG antibodies.
as §4

[6] = molecular target: T2, protein A sepharose (UniProt P38507 37-477); assay: precipitation from Cos-1 cells co-transfected with ephrin B1 and syntenin-FLAG, anti-FLAG blot
T2 construct: Bead-only control in the co-immunoprecipitation; also called protein A sepharose alone
Experimental: as §5, §4

Binder: B1
- Kd [1]: 17.7 µM

Binder: B2
- binding result [2]: no binding
- Kd [3]: 15.4 µM
- Kd [4]: 151 µM

Binder: B3
- binding result [5]: no binding
- binding result [6]: no binding
